Measurements from ChEMBL document CHEMBL4229465, “SIRT4 is the last puzzle of mitochondrial sirtuins” (Bioorg Med Chem, 2018).
Where a SMILES comes first, the peptide text is derived from it. The star is where a group is joined. ξ: configuration not given here. Biotin = O=C1N[C@H]2[C@H](CS[C@H]2CCCCC(=O)*)N1; Lipoyl(6ξ) = O=C(CCCCC1CCSS1)*; X2 = CC(O)(CC(=O)O)CC(=O)*; X1 = CC(C)(CC(=O)*)C(=O)O

Assays:
[1] = target: T1, NAD-dependent protein lipoamidase sirtuin-4, mitochondrial (Homo sapiens) (UniProt Q9Y6E7); experiment: Ratio of Kcat to Km at human N-terminal His6-tagged SIRT4 (25 to 314 residues) expressed in Escherichia coli codon plus (DE3)
T1 sequence (whole entry): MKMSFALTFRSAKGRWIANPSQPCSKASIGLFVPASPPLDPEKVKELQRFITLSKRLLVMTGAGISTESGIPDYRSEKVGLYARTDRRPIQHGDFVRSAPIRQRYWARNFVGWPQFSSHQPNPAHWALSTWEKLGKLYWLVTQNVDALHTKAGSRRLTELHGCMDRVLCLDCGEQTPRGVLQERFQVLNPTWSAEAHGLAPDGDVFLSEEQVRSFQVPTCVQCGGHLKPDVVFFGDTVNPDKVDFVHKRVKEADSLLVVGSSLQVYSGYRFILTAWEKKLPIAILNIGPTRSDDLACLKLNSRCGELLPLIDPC

[2] = target: T1, NAD-dependent protein lipoamidase sirtuin-4, mitochondrial (Homo sapiens); experiment: Ratio of Kcat to Km at recombinant SIRT4 (unknown origin)
[3] = target: T2, NAD-dependent protein deacetylase sirtuin-2 (Homo sapiens) (UniProt Q8IXJ6); experiment: Ratio of Kcat to Km at human SIRT2 (36 to 356 residues) expressed in Escherichia coli rosetta cells
T2 sequence (whole entry): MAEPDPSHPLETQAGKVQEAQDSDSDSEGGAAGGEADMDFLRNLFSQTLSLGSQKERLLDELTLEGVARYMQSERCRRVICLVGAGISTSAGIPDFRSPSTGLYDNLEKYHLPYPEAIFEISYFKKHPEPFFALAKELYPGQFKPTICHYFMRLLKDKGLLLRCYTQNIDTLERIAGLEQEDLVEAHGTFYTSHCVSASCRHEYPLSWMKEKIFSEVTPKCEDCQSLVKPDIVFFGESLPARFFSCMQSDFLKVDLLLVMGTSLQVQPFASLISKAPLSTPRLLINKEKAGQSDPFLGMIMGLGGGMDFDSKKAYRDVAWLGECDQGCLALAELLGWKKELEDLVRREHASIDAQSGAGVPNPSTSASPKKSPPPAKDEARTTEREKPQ

[4] = substrate: CC(C)C[C@H](NC(=O)[C@@H](NC(=O)CN)C(C)C)C(=O)N[C@@H](CCCCNC(=O)CC(C)(C)C(=O)O)C(=O)N[C@@H](CCC(=O)O)C(=O)N[C@@H](Cc1ccc(O)cc1)C(=O)NCC(=O)N[C@H](C(=O)O)C(C)C; experiment: (§1) Activity at human N-terminal His6-tagged SIRT4 (25 to 314 residues) expressed in Escherichia coli codon plus (DE3)
[5] = substrate: CC(C)C[C@H](NC(=O)[C@@H](NC(=O)CN)C(C)C)C(=O)N[C@@H](CCCCNC(=O)CC(C)(O)CC(=O)O)C(=O)N[C@@H](CCC(=O)O)C(=O)N[C@@H](Cc1ccc(O)cc1)C(=O)NCC(=O)N[C@H](C(=O)O)C(C)C; experiment: as §1
[6] = substrate: CC(=O)NCCCC[C@H](NC(=O)[C@H](CC(C)C)NC(=O)[C@@H](NC(=O)CN)C(C)C)C(=O)N[C@@H](CCC(=O)O)C(=O)N[C@@H](Cc1ccc(O)cc1)C(=O)NCC(=O)N[C@H](C(=O)O)C(C)C; experiment: as §1
[7] = substrate: CC(C)C[C@H](NC(=O)[C@@H](NC(=O)CN)C(C)C)C(=O)N[C@@H](CCCCNC(=O)CCCCC1CCSS1)C(=O)N[C@@H](CCC(=O)O)C(=O)N[C@@H](Cc1ccc(O)cc1)C(=O)NCC(=O)N[C@H](C(=O)O)C(C)C; experiment: as §1
[8] = compound: CC[C@H](C)[C@H](NC(=O)[C@@H](NC(=O)[C@H](C)NC(=O)[C@H](CCCCNC(=O)CCCCC1CCSS1)NC(=O)[C@H](CC(=O)O)NC(=O)[C@@H](NC(=O)[C@H](CCC(=O)O)NC(=O)[C@@H](NC(=O)[C@@H](N)CCC(=O)O)[C@@H](C)CC)[C@@H](C)O)[C@@H](C)O)C(=O)NCC(=O)O; experiment: (§2) Activity at recombinant SIRT4 (unknown origin) in presence of NAD by LC-MS analysis; details: Homo sapiens
[9] = compound: C[C@H](NC(=O)[C@@H](NC(=O)[C@H](CCC(N)=O)NC(=O)[C@@H](N)CCCCN)[C@@H](C)O)C(=O)N[C@@H](CCCNC(=N)N)C(=O)N[C@@H](CCCCNC(=O)CCCCC1CCSS1)C(=O)N[C@@H](CO)C(=O)N[C@H](C(=O)NCC(=O)NCC(=O)O)[C@@H](C)O; experiment: as §2; details: Homo sapiens
[10] = compound: CC(=O)NCCCC[C@H](NC(=O)[C@H](CCCNC(=N)N)NC(=O)[C@H](C)NC(=O)[C@@H](NC(=O)[C@H](CCC(N)=O)NC(=O)[C@@H](N)CCCCN)[C@@H](C)O)C(=O)N[C@@H](CO)C(=O)N[C@H](C(=O)NCC(=O)NCC(=O)O)[C@@H](C)O; experiment: as §2; details: Homo sapiens
[11] = compound: CC[C@H](C)[C@H](NC(=O)[C@@H](NC(=O)[C@H](C)NC(=O)[C@H](CCCCNC(C)=O)NC(=O)[C@H](CC(=O)O)NC(=O)[C@@H](NC(=O)[C@H](CCC(=O)O)NC(=O)[C@@H](NC(=O)[C@@H](N)CCC(=O)O)[C@@H](C)CC)[C@@H](C)O)[C@@H](C)O)C(=O)NCC(=O)O; experiment: as §2; details: Homo sapiens
[12] = compound: CC[C@H](C)[C@H](NC(=O)[C@H](CC(N)=O)NC(=O)[C@H](CCCCNC(C)=O)NC(=O)[C@H](CO)NC(=O)CNC(=O)[C@H](CC(C)C)NC(=O)[C@H](Cc1ccc(O)cc1)NC(=O)[C@@H](N)CO)C(=O)N[C@@H](CCCCN)C(=O)N[C@@H](C)C(=O)N[C@@H](CO)C(=O)N[C@@H](CCC(=O)O)C(=O)O; experiment: as §2; details: Homo sapiens
[13] = compound: C[C@H](NC(=O)[C@@H](NC(=O)[C@H](CCC(N)=O)NC(=O)[C@@H](N)CCCCN)[C@@H](C)O)C(=O)N[C@@H](CCCNC(=N)N)C(=O)N[C@@H](CCCCNC(=O)CCCC[C@@H]1SC[C@@H]2NC(=O)N[C@@H]21)C(=O)N[C@@H](CO)C(=O)N[C@H](C(=O)NCC(=O)NCC(=O)O)[C@@H](C)O; experiment: as §2; details: Homo sapiens

CC(C)C[C@H](NC(=O)[C@@H](NC(=O)CN)C(C)C)C(=O)N[C@@H](CCCCNC(=O)CCCCC1CCSS1)C(=O)N[C@@H](CCC(=O)O)C(=O)N[C@@H](Cc1ccc(O)cc1)C(=O)NCC(=O)N[C@H](C(=O)O)C(C)C (stereo partly drawn) (H-GVLK(Lipoyl(6ξ))EYGV-OH)
Ratio [1]: 170 s⁻¹ M⁻¹

CC(C)C[C@H](NC(=O)[C@@H](NC(=O)CN)C(C)C)C(=O)N[C@@H](CCCCNC(=O)CC(C)(O)CC(=O)O)C(=O)N[C@@H](CCC(=O)O)C(=O)N[C@@H](Cc1ccc(O)cc1)C(=O)NCC(=O)N[C@H](C(=O)O)C(C)C (stereo partly drawn) (H-GVLK(X2)EYGV-OH)
Ratio [1]: 546 s⁻¹ M⁻¹

C[C@H](NC(=O)[C@@H](NC(=O)[C@H](CCC(N)=O)NC(=O)[C@@H](N)CCCCN)[C@@H](C)O)C(=O)N[C@@H](CCCNC(=N)N)C(=O)N[C@@H](CCCCNC(=O)CCCCC1CCSS1)C(=O)N[C@@H](CO)C(=O)N[C@H](C(=O)NCC(=O)NCC(=O)O)[C@@H](C)O (stereo partly drawn) (H-KQTARK(Lipoyl(6ξ))STGG-OH)
Ratio [2]: 2.3 s⁻¹ M⁻¹

H-EIETDK(Ac)ATIG-OH
Ratio [2]: 0.2 s⁻¹ M⁻¹

CC(C)C[C@H](NC(=O)[C@@H](NC(=O)CN)C(C)C)C(=O)N[C@@H](CCCCNC(=O)CC(C)(C)C(=O)O)C(=O)N[C@@H](CCC(=O)O)C(=O)N[C@@H](Cc1ccc(O)cc1)C(=O)NCC(=O)N[C@H](C(=O)O)C(C)C (H-GVLK(X1)EYGV-OH)
Ratio [1]: 412 s⁻¹ M⁻¹

H-KQTARK(Ac)STGG-OH
Ratio [2]: 0.083 s⁻¹ M⁻¹

H-GVLK(Ac)EYGV-OH
Ratio [1]: 3.7 s⁻¹ M⁻¹

H-SYLGSK(Ac)NIKASE-OH
Ratio [2]: 0.0064 s⁻¹ M⁻¹

CC[C@H](C)[C@H](NC(=O)[C@@H](NC(=O)[C@H](C)NC(=O)[C@H](CCCCNC(=O)CCCCC1CCSS1)NC(=O)[C@H](CC(=O)O)NC(=O)[C@@H](NC(=O)[C@H](CCC(=O)O)NC(=O)[C@@H](NC(=O)[C@@H](N)CCC(=O)O)[C@@H](C)CC)[C@@H](C)O)[C@@H](C)O)C(=O)NCC(=O)O (stereo partly drawn) (H-EIETDK(Lipoyl(6ξ))ATIG-OH)
Ratio [2]: 7.65 s⁻¹ M⁻¹

H-KQLATK(Ac)AARKS-OH
Ratio [3]: 3130 s⁻¹ M⁻¹

C[C@H](NC(=O)[C@@H](NC(=O)[C@H](CCC(N)=O)NC(=O)[C@@H](N)CCCCN)[C@@H](C)O)C(=O)N[C@@H](CCCNC(=N)N)C(=O)N[C@@H](CCCCNC(=O)CCCC[C@@H]1SC[C@@H]2NC(=O)N[C@@H]21)C(=O)N[C@@H](CO)C(=O)N[C@H](C(=O)NCC(=O)NCC(=O)O)[C@@H](C)O (H-KQTARK(Biotin)STGG-OH)
Ratio [2]: 0.74 s⁻¹ M⁻¹

B1: NAD-dependent protein lipoamidase sirtuin-4, mitochondrial (Homo sapiens), Q9Y6E7 (protein)
chain: MKMSFALTFRSAKGRWIANPSQPCSKASIGLFVPASPPLDPEKVKELQRFITLSKRLLVMTGAGISTESGIPDYRSEKVGLYARTDRRPIQHGDFVRSAPIRQRYWARNFVGWPQFSSHQPNPAHWALSTWEKLGKLYWLVTQNVDALHTKAGSRRLTELHGCMDRVLCLDCGEQTPRGVLQERFQVLNPTWSAEAHGLAPDGDVFLSEEQVRSFQVPTCVQCGGHLKPDVVFFGDTVNPDKVDFVHKRVKEADSLLVVGSSLQVYSGYRFILTAWEKKLPIAILNIGPTRSDDLACLKLNSRCGELLPLIDPC
Km [4]: 17.7 µM
kcat [4]: 0.0073 s⁻¹
Km [5]: 9.7 µM
kcat [5]: 0.0053 s⁻¹
Km [6]: 2340 µM
kcat [6]: 0.0087 s⁻¹
Km [7]: 10.1 µM
kcat [7]: 0.0017 s⁻¹
Km [8]: 239 µM
kcat [8]: 0.0018 s⁻¹
Km [9]: 814 µM
kcat [9]: 0.0019 s⁻¹
Km [10]: > 2500 µM
Km [11]: > 2500 µM
Km [12]: > 2500 µM
Km [13]: 719 µM
kcat [13]: 0.0005 s⁻¹
